Measurements as given in the nanobody polyreactivity screen of Harvey et al. (2022).

Experiment: yeast display, Sf9 membrane polyspecificity reagent, FACS + sequencing; frameworks hold sequencing errors
In short: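 Polyreactivity labels are assigned by the sorting gate from which each nanobody was recovered. The gates were low and high (top ~1%), set on anti-HA fluorescence for expression and streptavidin fluorescence for reagent binding. Before sorting, galactose-induced (36–48 hours) yeast display cells were stained for 1 hour at 4 °C with 10% biotinylated, detergent-solubilized Sf9 membrane reagent.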

| Sequence | polyreactivity (PSR sort gate) |
| --- | --- |
| QVQLVESGGGLVQAGGSLRLSCAASGRTFRYYAMGWYREAPGKERELVAAISSSGDRTYYADSVKGRFTISRDNAKNTVYVQMNSLKPEDTAVYYCAKDSYRRYWGQGTQVTVSS | high polyreactivity |
| QVQHEESGGGLVQAGGSLRLSCAASGSIFYDNGMGWYRPAPGKERELVAAISRGGTTNYADSVKGRFTISRDKAKNTVYFQMNSLKPEDTAVYYCNADTRFTYWGSWYDYWGQGTQVTVSS | low polyreactivity |
| QVQLVESGGGLVQAGGSLRLSCAASGPTFYKYAMGWYRQAPGKERELVATITRRGGSTYYADSVKGRFTISRDNAKNTVYLQMNSLKPEDTAVYYCAKEIFQKGPDGHDYWGQGTQVTVSS | low polyreactivity |
| QVQLVESGGGLVQAGGSLRLSCAASGSTLVANAMGWYRQAPGKERELVARITSGTSTYYADSVKGRFTISRDNAKNTVYLQMNSLKPEDTAVYYCAAGRWTRRRTYDSWGQGTQVTVSS | high polyreactivity |
| QVQLVESGGGLVQAGGSLRLSCAASGSTFNGYAMGWYRQAPGKERELVAAISWRGGSTYYADSVKGRFTISRDNAKNTVYLQMNSLKPEDTAVYYCNTLLYYGHRYYYWGQGTQVTVSS | high polyreactivity |
| QVQLGDSGGGLVQAGGSLRLSCAASGSIFNKYAMGWYRQAPGKEREFVAPITQGGGRTYYADSVKGRFTISRDNAKNNVYLQMNSLKPEDTAVYYCIYNFNYPYYRYGYWGQGTQVTVSS | high polyreactivity |
| QVQLVESGGGLVQAGGSLRLSCAASGRTFYEYAKGWYRQAPGKERELVAGITSGGSTNYADSVKGRFTISRDNEKNTVYLQMNSLKPEDTAVYYCAASYWGYEYDYWGQGTQVTVSS | low polyreactivity |
| QVQLVESGGGLVQAVGSLSLSCAASGLTLGSYAKGAYRQAPGKERELVAAISRRSGRTYYADSVKGLFTISRDNAKNTVYLQINSLKPEDTAGFYCNRGYTAQVYTEFDYWGQGTQVTVSS | low polyreactivity |
| QVQLVDSGGGLVQAGGSLRLSCAASGLIFTYYAMGWYRQAPGKERELVAAINYSGGSTYYADSVKGRFTISRDNAKNSVYLQMNSLKPEDTAVYYCAARRVTQTEGPMGYWGQGTQVTVSS | low polyreactivity |
| QVQLQESGGGLVNAGGSLRLSCAASGTISFINMMGWYRQAPGRERELVASINFGANTNYADSVKGRFTISRDNAKNTVYLQMNSLKPEDTAVYYCAVYDFDAYTLYYWGQGTLVTVSS | high polyreactivity |
| QVQLVESGGGLVQAGGSLRLSCAASGSIFKGYAMGWYRQAPGKERELVAAITYSGGGTYYADSVKGRFTISRDNAKNTVYIQMNILKPEDTAVYYCNADRYYPDDLSDGVGTYDYWGQGTQVTVSS | low polyreactivity |
| QVQLVESGGGLVQAGGSLRLSCAASGSTFYQYVMGWYRQAPGKERELVAAISGSGGSTYYADSVKGRFTISRDNAKNTVYLQMNSLKPEDTAVYYCAAVGRSKRDGYWGQGTQVTVSS | high polyreactivity |
| QVQLVESGGGLVQAGGSLRLSCAASGSIFGVNAMGWYRQAPGKERELVATITWRTGSTYYADSVKGRFTISRDNAKNTVYLQMNSLKPEDTAVYYCAAEDYTEFDYWGQGTQVTVSS | low polyreactivity |
| QVQLVESGGGLVQAGGSLRLSCAASGLIFPRYGMGWYRQAPGKERELVAAISRSGGNTYYADSVKGRFTISRDNAKNTVYLQMNSLKPEDTAVYYCAAYFSTAPKSQYKLDYRGQGTQVTVSS | high polyreactivity |
| QVQLVESGGGLVQAGGSLRLSCAASGNIFGKYAMGWYRQAPGKERELVAAISSGGRTNYADSVKGRFTISRDNAKNTVYLQMNSLKPEDTAVYYCAKRYFRTKGYYYWGQGTQVTVSS | high polyreactivity |
| QVQLVESGGGLVQAGGSLRLSCAASGYIIRGYVMGWYRQAPGKERELVAAITSRGDSTYYADSVKGRFTISRDNAKNTVYLQMNSLIPEDTAVYYCYFYFRRQYEHEYWGQGTQVTVSS | high polyreactivity |
| QVQLVESVGGLVQAGGSLRLSCAGSGSTFGRYTMGSSRQAPVKEREFVAAIRWSGGNTYYADTVKGRFTISRGKAKNTVYLQMNSLKTEDTAVFYCNRVYSTIGDYWGQGTQVTVSS | low polyreactivity |
| QVQLVESGGGLVQAGGSLRLSCAASGSIFAAYAMGGYRQAPGKERELVATIRWTSGSTYYADSVKGRFTISRDNAKNTVYLQMNSLKPEDTAVFYCAAQKNKYYWPRFGYWGQGTQVTGSS | high polyreactivity |
| QVQIVESGGGLVQAGGSLRLSCAASGRIFFVNTKGWYRQAPGKERELVATISWSGGSTYYADSVKGRFTISRDNAKNTVYLQMNSLKPEDTAVYYCNRSLTGYDELGYPVPYTYDYWGQGTQVTVSS | low polyreactivity |
| QVQLVESGGGLVQAGGSLRLSCAASGSIFFYYAMGWYRQAPGKERELVAAITGSGGSTYYADSVKGRFTISRDNAKNTVYLQMNSLKPEDTAVYSCAADRTVRAVYYGYGYWGQGTQVTVSS | low polyreactivity |
| QLQLVESGGGLVQAGGSLRLSCAASGFTFYLYVLGWYRQAPGKEREFVAAITGSGTSTYYADSVKGRFTISRDNAKNTVYLQMNSLKPEDTAVYYCNAKRDRYFYTVKYDYWGQGTQVTVSS | low polyreactivity |
| QVQLVESGGGLVQAGGSLRLSCAASGSTFTDYDMGWYRQAPGKERELVAAITSGGSTNYADSVKGRITISRDNAKNTVYLQMNSLKPEDTAVYYCAAADADRKYDYWGQGTQVTVSS | low polyreactivity |

| Sequence | polyreactivity (PSR sort gate) |
| --- | --- |
| QVQLVESGGGLVQAGGSLRLSCASSGFTFYYNAMGWYRQAPGQERELVASITRSGGRTYYSDSVKGRFTISRDNAKNTVYLQMNSLKPEDTAVYYCARRYPGGYYWGQGTHVTVSS | high polyreactivity |
| QVQLVESGGGLVQAGGSLRLSCAASGRTFRRYAMGWYRQAPGKERELVAAISRSGGSTYYADSVKGRFTISRDNAKNTVYLQMNSLKPEETAVYYCAAGIWSKLVEPFDYWGQGTQVTVSS | high polyreactivity |
| QVQLVESGGGLVQAGGSLRLSCAASGRTCRHNAMGWYRQAPGTERELVAAISSSGTNTHYADSVKGRFTISRDNAKNTVYLQMNSLKPEDTAVYYCAADRWGARRKQYHENGYWAQGTQVTVSS | high polyreactivity |
| QVQLVESGGGLVQAGGSLRLSCAASGGIISMYDIGWYRQAQGKERQLVAAISQSGGSTYYADYVKGRFTISRDNAKNTVYLQMNSLNPEVTGVYYCAADLYLTLIGFIFTGEEYWGQGTQGTVSS | low polyreactivity |
| QVQLQESGGGLVQAGGSLRLSCAASGNIFDADIMGWYRQAPGKERELVASITDGGSTNYADSVKGRFTISRDNAKNTLYLQLISLYPDDTGVYYCAAIAYPDIPTYFDYDSDYFYWGQGTQVTVSS | high polyreactivity |
| QVQLVESGGGLVQAGGSLRLICAASGSTFYTYAMGWYRQAPGKERELVAAITYSGGTTYYADSVKGRFTISRDSAKNTVYLQMNSLKPEDTAFYYCNTRSYYYSDDYWGQGTQVTVSS | low polyreactivity |
| QVQLVESGGGLVQAGGSLRLSCAASGSIFRSYAMGWYRQAPGKERELVAAITFSGGRTYYADSVKGRFTISRDNAKNTVYLQMNSLKPEDTGVYYCNARHRNLAEYDYWGQGTQVTVSS | low polyreactivity |
| QVQLVESGGGLVQAGGSLRLSCAASGNIFKWYAMGWYRQAPGKERELVAAISKSGGSTYYADSVKGRFTISRDNAKNTVYLQMNSLKPEDTAVYYCAAGWKHGTYRYTVESNFDYWGQGTQVTVSS | high polyreactivity |
| QVQLVESGGGLVQAGGSLRLSCAASGLTFRWYAMGWYRQAPGKERELVAAISWSGGSTYYADSVKGRFTISRDNAKNTVYLQMNSLKPEDTAVDYCAASYYADRSKAYDYWGQGTQLTVSS | high polyreactivity |
| QVQLVESGGGLVQAGGSLRLSCAASGIIFYIYTMAWYRQAPGKERELVAAINRSGSRTYYADSVKGRFTISRDNAKNTVYLQMNSLKPEDTAVYYCAAGTGSRDDYWGQGTQVTVSS | high polyreactivity |
| QVQLVESGGGLVQAGGSLRLSCAASGLIFGPYAMGWYRQAPGKERELVAAISARGGSTRYADSVKGRFTISRDNAKNTVYLQMNSLKPEDTAVYYCAASTWYGYDYWGQGTQVTVSS | high polyreactivity |
| QVQLVESGGGLVQAGGSLRLSCAASGNIFVFYVMGWYRPAPGKERELVASISSTGNTYYADSVKGRFTISRDNAKNTVYLQMNSLKPEDTAVYYCNADPIFVYSSYNYWGQGTQVTVSS | low polyreactivity |
| KGQHVESGGGLVQAGGRLRLSCAASGSIFRYNAMGWDRQAPGKEREFVAAISWSGGRTFYADSVKGRFTISRDNAKNTVYLQMNSLKPEDTAVYYCAARSSRTTRQGYDYWGHGTQVTVSS | high polyreactivity |
| QVQLVESGGGLVQAGGSLRLSCAPSGSTFRPYGMGWYRQAPCKETELVAAINSGDSTYYADSVKGRFTISSDNAKNTVYLQMNSLKPEDTAVYYCAAGYYIRGRYGYWGQATQVTVSS | high polyreactivity |
| QVQLVESGGGLVQAGGSLRLSCAASGSIFEYTGMGWYRQAPGKERELVAAITTTGTTDYADSVKGRFTISRDNAKNTVYLQMNSLKPEDTAVYYCAADYTYYYKVEYDYWGQGTQVTVSS | low polyreactivity |
| QVQLVESGGGLVQAGGSLRLSCAASGFIFSYYAMGWYRQAPGKERELVAAISGRGGSTYYADSVKGRFTISRDNAKNTVYLQMNSLQPEDTAVYYCAADSPWGGGYFVLYNYWGQGTQVTVSS | low polyreactivity |
| QVQLVESGGGLVQAGGSLRLTCAASGITFYDNAMGWYRQAPGKERELVAGISYDGDSTYADSVKGRFTNSRDNAKNTVYLQMNSLKPEDTAVYYCAADSSGEYPGGYWGQGTQVTVSS | low polyreactivity |
| QVQLVESGGGLVQAGGSLRLSCAASGSTFGWYAMGWYRQAPGKERELVAAISTSGNTYYADSVKGRFTISRDNAKNTVYLHMNRLKPEDTAVSYCAKYVNPDHDYWGQGTQVTVSS | low polyreactivity |
| QVQLVESGGGLVQARGSLRLSCAASGSIFHHYAMGWYRQAPGKDTELVAAISKSGGSTYYADSVKGRFTISRDNAKNTVYLQMNSLKPEDTAVYYCNAEVFWWDLWYDYWGQGTKVTVSS | high polyreactivity |
| QVQLVESGGGLVQAGGSLRLSCAASGRTFYRYAMGWYRQAPGKERELVATISRSGGSTYYADSVKGRFTISRDNAKYTVYLQMKSLNPEDTAVYYCNAEGYPWGFYTYDYWGQGTQVTVSS | low polyreactivity |
| QVQLVESGGGLVQAGGSLRLSCAASGITFYINGMGWYRQAPGKEREFVAAIYDGVNTYYADSVKGRFTISRDNAKNTVYLQMNSLKPEDTAVYYCAADYPPARWEMEYWGQGTQVTVSS | low polyreactivity |
